Laboratory results reported in the supplement of paper PMC9112550, “Optimization of the antimicrobial peptide Bac7 by deep mutational scanning” (BMC Biology, 2022).
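Further: peptides expressed intracellularly from a pBAD plasmid library in pooled LB shake-flask culture, induced with 0.3% L-arabinose, DNA abundance read by NGS, three biological replicates, DESeq2 with apeglm shrinkage.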

Each sequence was assayed on Escherichia coli TOP10 (assay: shrunken log2 fold change of peptide-encoding DNA abundance (4.5 h post-induction vs induction); higher = less antimicrobial activity (less host growth inhibition)). Details: time post-induction: 4.5 h; library: site-saturation at positions 5, 18, 19, 20.
RRIRTRPPRLPRPRPRPLLYPRP was tested, and the “shrunken log2 fold change” value was -0.444. In the case of RRIRGRPPRLPRPRPRPSQRPRP, the “shrunken log2 fold change” value was 0.181. RRIRDRPPRLPRPRPRPTPWPRP was tested, and the “shrunken log2 fold change” value was 0.66. RRIRWRPPRLPRPRPRPNPMPRP was tested, and the “shrunken log2 fold change” value was -0.176. In the case of RRIRCRPPRLPRPRPRPIMPPRP, the “shrunken log2 fold change” value was -0.11. In the case of RRIRGRPPRLPRPRPRPYIMPRP, the “shrunken log2 fold change” value was -0.746. In the case of RRIRRRPPRLPRPRPRPYVIPRP, the “shrunken log2 fold change” value was 0.0475. With RRIRERPPRLPRPRPRPDRWPRP the “shrunken log2 fold change” value was -0.0318. With RRIRPRPPRLPRPRPRPLAMPRP the “shrunken log2 fold change” value was 0.193. In the case of RRIRQRPPRLPRPRPRPLTAPRP, the “shrunken log2 fold change” value was 0.0683. For RRIRHRPPRLPRPRPRPWMAPRP, the “shrunken log2 fold change” value was -0.347. For RRIRNRPPRLPRPRPRPAAMPRP, the “shrunken log2 fold change” value was -0.223. For RRIRARPPRLPRPRPRPDCIPRP, the “shrunken log2 fold change” value was 0.446. In the case of RRIRARPPRLPRPRPRPKQAPRP, the “shrunken log2 fold change” value was 0.147. In the case of RRIRWRPPRLPRPRPRPFIKPRP, the “shrunken log2 fold change” value was -0.686. RRIRVRPPRLPRPRPRPHFNPRP was tested, and the “shrunken log2 fold change” value was -0.705. RRIRRRPPRLPRPRPRPTEMPRP was tested, and the “shrunken log2 fold change” value was 0.477. With RRIRCRPPRLPRPRPRPAWDPRP the “shrunken log2 fold change” value was 0.235. For RRIRVRPPRLPRPRPRPAKHPRP, the “shrunken log2 fold change” value was -0.169. RRIRWRPPRLPRPRPRPSNNPRP was tested, and the “shrunken log2 fold change” value was -0.446. For RRIRRRPPRLPRPRPRPDCWPRP, the “shrunken log2 fold change” value was 0.676. For RRIRVRPPRLPRPRPRPRYMPRP, the “shrunken log2 fold change” value was -0.528. With RRIRVRPPRLPRPRPRPVYQPRP the “shrunken log2 fold change” value was -0.243. RRIRNRPPRLPRPRPRPLLLPRP was tested, and the “shrunken log2 fold change” value was -0.25. For RRIRQRPPRLPRPRPRPHEIPRP, the “shrunken log2 fold change” value was -0.0149. With RRIRPRPPRLPRPRPRPTLAPRP the “shrunken log2 fold change” value was 0.332. With RRIRQRPPRLPRPRPRPEDHPRP the “shrunken log2 fold change” value was -0.0311. With RRIRLRPPRLPRPRPRPGFFPRP the “shrunken log2 fold change” value was 0.0646. For RRIRRRPPRLPRPRPRPFMMPRP, the “shrunken log2 fold change” value was -0.173. In the case of RRIRDRPPRLPRPRPRPFGWPRP, the “shrunken log2 fold change” value was 0.903. For RRIRIRPPRLPRPRPRPHMEPRP, the “shrunken log2 fold change” value was -0.332. RRIRPRPPRLPRPRPRPFKLPRP was tested, and the “shrunken log2 fold change” value was -0.00835. RRIRRRPPRLPRPRPRPRCFPRP was tested, and the “shrunken log2 fold change” value was 0.474. RRIRLRPPRLPRPRPRPVGYPRP was tested, and the “shrunken log2 fold change” value was -0.0152. With RRIRKRPPRLPRPRPRPCCCPRP the “shrunken log2 fold change” value was 0.415. RRIRCRPPRLPRPRPRPADWPRP was tested, and the “shrunken log2 fold change” value was 0.29. In the case of RRIRKRPPRLPRPRPRPNGHPRP, the “shrunken log2 fold change” value was -0.0369. For RRIRARPPRLPRPRPRPVTRPRP, the “shrunken log2 fold change” value was 0.35. In the case of RRIRARPPRLPRPRPRPNANPRP, the “shrunken log2 fold change” value was 0.49. For RRIRMRPPRLPRPRPRPQHSPRP, the “shrunken log2 fold change” value was -0.183. In the case of RRIRPRPPRLPRPRPRPLGYPRP, the “shrunken log2 fold change” value was -0.0805. With RRIRPRPPRLPRPRPRPKLDPRP the “shrunken log2 fold change” value was 0.0519. In the case of RRIRKRPPRLPRPRPRPTVCPRP, the “shrunken log2 fold change” value was 0.765. In the case of RRIRHRPPRLPRPRPRPHLGPRP, the “shrunken log2 fold change” value was 0.0478. RRIRARPPRLPRPRPRPATKPRP was tested, and the “shrunken log2 fold change” value was 0.531. RRIRVRPPRLPRPRPRPENWPRP was tested, and the “shrunken log2 fold change” value was 0.131. RRIRPRPPRLPRPRPRPANRPRP was tested, and the “shrunken log2 fold change” value was -0.125. In the case of RRIRERPPRLPRPRPRPGYPPRP, the “shrunken log2 fold change” value was -0.216. For RRIRERPPRLPRPRPRPRYRPRP, the “shrunken log2 fold change” value was -0.198. With RRIRGRPPRLPRPRPRPRYFPRP the “shrunken log2 fold change” value was -0.0468. In the case of RRIRRRPPRLPRPRPRPDSMPRP, the “shrunken log2 fold change” value was -0.251. With RRIRNRPPRLPRPRPRPDRHPRP the “shrunken log2 fold change” value was 0.0343. For RRIRHRPPRLPRPRPRPQLLPRP, the “shrunken log2 fold change” value was -0.197. In the case of RRIRVRPPRLPRPRPRPQNDPRP, the “shrunken log2 fold change” value was -0.292. For RRIRLRPPRLPRPRPRPTWFPRP, the “shrunken log2 fold change” value was 0.0207. RRIRDRPPRLPRPRPRPSDDPRP was tested, and the “shrunken log2 fold change” value was 0.126. With RRIRPRPPRLPRPRPRPNQSPRP the “shrunken log2 fold change” value was -0.247. RRIRSRPPRLPRPRPRPKPCPRP was tested, and the “shrunken log2 fold change” value was 0.122. In the case of RRIRYRPPRLPRPRPRPGIMPRP, the “shrunken log2 fold change” value was 0.0185. With RRIRHRPPRLPRPRPRPNATPRP the “shrunken log2 fold change” value was 0.255. In the case of RRIRPRPPRLPRPRPRPFHVPRP, the “shrunken log2 fold change” value was -0.428. RRIRYRPPRLPRPRPRPQFYPRP was tested, and the “shrunken log2 fold change” value was -1.86. In the case of RRIRTRPPRLPRPRPRPAVWPRP, the “shrunken log2 fold change” value was 0.556. With RRIRHRPPRLPRPRPRPWLNPRP the “shrunken log2 fold change” value was -0.0017. RRIRWRPPRLPRPRPRPWAHPRP was tested, and the “shrunken log2 fold change” value was 0.0966. In the case of RRIRHRPPRLPRPRPRPCIAPRP, the “shrunken log2 fold change” value was -0.46. For RRIRKRPPRLPRPRPRPFQAPRP, the “shrunken log2 fold change” value was 0.0945. For RRIRERPPRLPRPRPRPPRCPRP, the “shrunken log2 fold change” value was -0.0309. With RRIRYRPPRLPRPRPRPFSEPRP the “shrunken log2 fold change” value was 0.41. With RRIRTRPPRLPRPRPRPFKHPRP the “shrunken log2 fold change” value was -0.126. With RRIRLRPPRLPRPRPRPPLIPRP the “shrunken log2 fold change” value was -0.258. In the case of RRIRERPPRLPRPRPRPSSHPRP, the “shrunken log2 fold change” value was -0.0471. RRIRDRPPRLPRPRPRPFLTPRP was tested, and the “shrunken log2 fold change” value was -0.0719. With RRIRERPPRLPRPRPRPGKPPRP the “shrunken log2 fold change” value was 0.231. With RRIRKRPPRLPRPRPRPMHSPRP the “shrunken log2 fold change” value was -0.0199.
